From patent US20200405841A1 (GlaxoSmithKline, published 2020)

Legend:
[1] = molecular target: T1, recombinant soluble UspA2 (SEQ ID NO: 53) (Moraxella catarrhalis); experiment: negative-stain electron microscopy of the complex
T1 construct: also called MC-009; soluble UspA2 recombinant protein
T1 chain: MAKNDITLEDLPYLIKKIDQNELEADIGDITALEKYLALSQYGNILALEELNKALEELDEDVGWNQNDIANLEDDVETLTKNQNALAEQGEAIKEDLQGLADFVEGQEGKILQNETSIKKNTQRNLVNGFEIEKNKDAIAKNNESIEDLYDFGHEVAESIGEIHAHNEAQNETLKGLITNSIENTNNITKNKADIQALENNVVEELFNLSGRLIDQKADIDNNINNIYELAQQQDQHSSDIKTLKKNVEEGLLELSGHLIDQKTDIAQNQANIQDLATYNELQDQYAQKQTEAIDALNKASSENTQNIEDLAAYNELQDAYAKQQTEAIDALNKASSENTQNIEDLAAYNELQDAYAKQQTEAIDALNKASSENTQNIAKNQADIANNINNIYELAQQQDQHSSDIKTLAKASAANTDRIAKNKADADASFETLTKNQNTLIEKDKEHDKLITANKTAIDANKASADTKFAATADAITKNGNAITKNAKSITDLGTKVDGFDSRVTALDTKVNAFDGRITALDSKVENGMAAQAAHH

[2] = molecular target: UspA2H of Moraxella catarrhalis UK isolate 296 (AERIS study) (Moraxella catarrhalis); experiment: cell-based or functional assay
[3] = molecular target: UspA2H of Moraxella catarrhalis UK isolate 193 (AERIS study) (Moraxella catarrhalis); experiment: cell-based or functional assay
[4] = molecular target: UspA2 of Moraxella catarrhalis Denmark isolate BBH18 (Moraxella catarrhalis); experiment: cell-based or functional assay
[5] = molecular target: UspA2H of Moraxella catarrhalis UK isolate 415 (AERIS study) (Moraxella catarrhalis); experiment: cell-based or functional assay
[6] = molecular target: UspA1 of Moraxella catarrhalis strain ATCC 43617 (Moraxella catarrhalis); experiment: cell-based or functional assay
[7] = molecular target: T2, UspA2 of Moraxella catarrhalis strain ATCC 25238 (Moraxella catarrhalis); experiment: cell-based or functional assay
T2 chain: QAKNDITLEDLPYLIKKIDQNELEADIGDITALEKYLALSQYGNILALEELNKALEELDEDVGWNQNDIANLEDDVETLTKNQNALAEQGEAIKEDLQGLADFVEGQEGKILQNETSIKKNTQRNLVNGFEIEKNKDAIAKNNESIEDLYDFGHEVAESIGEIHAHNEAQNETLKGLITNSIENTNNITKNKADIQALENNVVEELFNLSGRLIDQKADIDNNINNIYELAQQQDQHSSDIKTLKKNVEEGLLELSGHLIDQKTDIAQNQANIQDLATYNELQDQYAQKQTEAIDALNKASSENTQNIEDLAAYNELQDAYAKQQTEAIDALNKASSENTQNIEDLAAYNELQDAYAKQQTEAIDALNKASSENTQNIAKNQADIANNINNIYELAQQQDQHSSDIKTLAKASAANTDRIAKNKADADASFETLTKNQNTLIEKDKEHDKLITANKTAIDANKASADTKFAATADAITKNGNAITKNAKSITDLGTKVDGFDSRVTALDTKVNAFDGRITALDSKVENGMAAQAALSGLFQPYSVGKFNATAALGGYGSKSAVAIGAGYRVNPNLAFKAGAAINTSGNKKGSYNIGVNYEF

[8] = molecular target: T3, UspA2 of Moraxella catarrhalis Dutch isolate F10 (Moraxella catarrhalis); experiment: cell-based or functional assay
T3 chain: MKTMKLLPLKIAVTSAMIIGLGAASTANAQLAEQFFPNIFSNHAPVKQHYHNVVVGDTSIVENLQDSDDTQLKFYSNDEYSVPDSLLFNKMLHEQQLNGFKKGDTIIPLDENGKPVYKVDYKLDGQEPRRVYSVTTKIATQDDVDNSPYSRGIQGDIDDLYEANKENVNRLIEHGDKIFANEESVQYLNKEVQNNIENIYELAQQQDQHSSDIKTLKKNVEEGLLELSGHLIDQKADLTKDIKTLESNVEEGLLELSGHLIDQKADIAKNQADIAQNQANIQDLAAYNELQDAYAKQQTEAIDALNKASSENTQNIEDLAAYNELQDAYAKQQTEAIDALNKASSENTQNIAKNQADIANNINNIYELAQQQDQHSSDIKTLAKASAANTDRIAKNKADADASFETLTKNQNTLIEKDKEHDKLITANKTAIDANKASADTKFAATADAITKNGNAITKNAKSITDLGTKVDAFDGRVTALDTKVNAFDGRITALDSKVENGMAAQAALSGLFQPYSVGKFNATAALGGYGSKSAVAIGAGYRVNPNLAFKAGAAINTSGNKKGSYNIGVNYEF

[9] = molecular target: UspA2H of Moraxella catarrhalis UK isolate 268 (AERIS study) (Moraxella catarrhalis); experiment: cell-based or functional assay
[10] = molecular target: UspA2H of Moraxella catarrhalis UK isolate 240 (AERIS study) (Moraxella catarrhalis); experiment: cell-based or functional assay

B1: FHUSPA2/10 monoclonal antibody (antibody, V domains shown)
VH: EVQLQQSGTVLARPGASVKMSCKASGYSFTSYWMHWVKQRPGQGLEWIGAIYPGNSDTSYNQKFKGKAKLTAVTSASTAYMELSNLTNEDSAVYSCTLLRFLDAYWGQGTLVTVSA
VL: QIVLSQSPAILSASPGEKVTMTCRASSSVSYMHWYQQKPGSSPKPWIYATSNLASGVPARFSGSGSGTSYSLTISRVEAEDAATYYCQQWSSNPPTFGGGSKLEIK
notes: Hybridoma-secreted mouse monoclonal antibody; Isotype confirmed as IgG2a, light chain of kappa class; also called FHUSPA2/10 mAb; anti-UspA2 monoclonal antibody FHUSPA2/10
Q: Does B1 bind [1]?
A: Result: binds

Q: And the “bactericidal activity (mid-point titer)” value [2]?
A: The value was 114000 reciprocal dilution inducing 50% of killing.

Q: And the “bactericidal activity (mid-point titer)” value [3]?
A: Its value is > 640000 reciprocal dilution inducing 50% of killing.

Q: And the “bactericidal activity (mid-point titer)” value [4]?
A: The value was 386000 reciprocal dilution inducing 50% of killing.

Q: And the “bactericidal activity (mid-point titer)” value [5]?
A: The value was 256000 reciprocal dilution inducing 50% of killing.

Q: What about the “bactericidal activity (mid-point titer)” value [6] of the same binder?
A: The value was < 100 reciprocal dilution inducing 50% of killing.

Q: And the “bactericidal activity (mid-point titer)” value [7]?
A: Its value is 1.88e+06 reciprocal dilution inducing 50% of killing.

Q: And the “bactericidal activity (mid-point titer)” value [8]?
A: The value was 528000 reciprocal dilution inducing 50% of killing.

Q: What about the “bactericidal activity (mid-point titer)” value [9] of the same binder?
A: Its value is > 384000 reciprocal dilution inducing 50% of killing.

Q: What about the “bactericidal activity (mid-point titer)” value [10] of the same binder?
A: The value was > 25600 reciprocal dilution inducing 50% of killing.
